The target of assay [1] is T1, Fpr1-F[3] (S. cerevisiae, UniProt P20081 2-114; P00375 107-187).
T1 sequence (looked up): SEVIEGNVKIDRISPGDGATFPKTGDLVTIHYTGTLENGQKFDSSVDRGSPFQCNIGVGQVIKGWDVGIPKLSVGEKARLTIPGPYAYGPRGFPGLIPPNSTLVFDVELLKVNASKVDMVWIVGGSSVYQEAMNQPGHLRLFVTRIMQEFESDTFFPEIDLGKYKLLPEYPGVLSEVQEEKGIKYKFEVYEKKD
Briefly: cell-based or functional assay.

Assay [2] deals with Snq2-F[3] (S. cerevisiae, UniProt P32568 2-1501; P00375 107-187). In words: cell-based or functional assay.
In assay [3] the target is T2, Hxt1-F[3] (S. cerevisiae, UniProt P32465 1-570; P00375 107-187).
T2 sequence (looked up): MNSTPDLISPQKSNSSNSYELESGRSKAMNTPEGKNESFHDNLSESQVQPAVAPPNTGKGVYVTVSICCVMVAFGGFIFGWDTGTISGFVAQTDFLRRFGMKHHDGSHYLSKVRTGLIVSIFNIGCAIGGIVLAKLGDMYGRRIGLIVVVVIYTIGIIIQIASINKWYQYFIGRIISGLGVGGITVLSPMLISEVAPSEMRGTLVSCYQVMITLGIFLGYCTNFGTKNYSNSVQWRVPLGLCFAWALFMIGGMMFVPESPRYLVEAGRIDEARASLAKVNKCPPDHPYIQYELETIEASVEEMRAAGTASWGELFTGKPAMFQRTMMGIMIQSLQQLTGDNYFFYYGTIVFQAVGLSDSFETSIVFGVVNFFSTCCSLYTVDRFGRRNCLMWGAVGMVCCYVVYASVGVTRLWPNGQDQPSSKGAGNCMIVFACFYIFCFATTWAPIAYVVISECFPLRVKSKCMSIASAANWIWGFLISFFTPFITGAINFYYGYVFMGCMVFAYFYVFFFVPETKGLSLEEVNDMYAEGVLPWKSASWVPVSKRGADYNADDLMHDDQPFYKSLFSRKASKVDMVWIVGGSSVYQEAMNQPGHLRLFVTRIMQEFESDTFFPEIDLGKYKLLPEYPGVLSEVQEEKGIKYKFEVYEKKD
In words: cell-based or functional assay.

Assay [4] addresses Pdr5-F[3] (S. cerevisiae, UniProt P33302 1-1511; P00375 107-187). In words: cell-based or functional assay.
Assay [5] deals with T3, Pdr5 split Renilla luciferase (Rluc) PCA fusion (S. cerevisiae, UniProt P33302 1-1511).
T3 construct: whole, on cells; DHFR fragment of the Pdr5-F[3] strain replaced by an Rluc PCA fragment by homologous recombination; also called Pdr5 (Rluc PCA strain); not shown: linker of the pAG25/pAG32-linker-Rluc cassettes; Renilla luciferase PCA fragment; DHFR F[3] strains are said to receive Rluc F[1], but the next sentences call preys Rluc
In words: split Renilla luciferase PCA, luminescence of yeast cells, 200 µM copper sulfate. The protocol:
Triplicate fresh colonies of each diploid Rluc PCA strain were grown in 5 ml synthetic dextrose media supplemented with standard concentrations of histidine, leucine, and uracil at 30° C. for 24 h, then diluted 1:32 into 5 ml of the same media supplemented DMSO (0.5%), FK506 (50 μM), hydrogen peroxide (0.001%), sodium chloride (175 mM), or copper sulfate (200 μM). Cells were grown for 24 h at 30° C., diluted 1:32 again into fresh media containing the same supplement, and grown for another 6 h. Cells were counted, and 1-2×10⁷ cells were pelleted, and resuspended in 180 ul phosphate-buffered saline (PBS), pH 7.2 containing 1 mM EDTA. Cells were transferred to white 96-well flat bottom plates (Greiner bio-one #655075). The luciferase substrate, benzyl coelenterazine (Nanolight #301), was diluted 1:10 from the stock (2 mM in absolute ethanol) using 1×PBS, and 20 ul of diluted substrate was added to each sample (to a final concentration of […]). A Centro LB 960 microplate luminometer (Berthold Technologies) was used to measure the Rluc PCA signal, which was integrated for 10 seconds. Changes in luminescence in response to a specific condition were calculated by the following equation: luminescencecondition/luminescenceDMSO.

T3 sequence (P33302 whole entry, the tested form may be a part): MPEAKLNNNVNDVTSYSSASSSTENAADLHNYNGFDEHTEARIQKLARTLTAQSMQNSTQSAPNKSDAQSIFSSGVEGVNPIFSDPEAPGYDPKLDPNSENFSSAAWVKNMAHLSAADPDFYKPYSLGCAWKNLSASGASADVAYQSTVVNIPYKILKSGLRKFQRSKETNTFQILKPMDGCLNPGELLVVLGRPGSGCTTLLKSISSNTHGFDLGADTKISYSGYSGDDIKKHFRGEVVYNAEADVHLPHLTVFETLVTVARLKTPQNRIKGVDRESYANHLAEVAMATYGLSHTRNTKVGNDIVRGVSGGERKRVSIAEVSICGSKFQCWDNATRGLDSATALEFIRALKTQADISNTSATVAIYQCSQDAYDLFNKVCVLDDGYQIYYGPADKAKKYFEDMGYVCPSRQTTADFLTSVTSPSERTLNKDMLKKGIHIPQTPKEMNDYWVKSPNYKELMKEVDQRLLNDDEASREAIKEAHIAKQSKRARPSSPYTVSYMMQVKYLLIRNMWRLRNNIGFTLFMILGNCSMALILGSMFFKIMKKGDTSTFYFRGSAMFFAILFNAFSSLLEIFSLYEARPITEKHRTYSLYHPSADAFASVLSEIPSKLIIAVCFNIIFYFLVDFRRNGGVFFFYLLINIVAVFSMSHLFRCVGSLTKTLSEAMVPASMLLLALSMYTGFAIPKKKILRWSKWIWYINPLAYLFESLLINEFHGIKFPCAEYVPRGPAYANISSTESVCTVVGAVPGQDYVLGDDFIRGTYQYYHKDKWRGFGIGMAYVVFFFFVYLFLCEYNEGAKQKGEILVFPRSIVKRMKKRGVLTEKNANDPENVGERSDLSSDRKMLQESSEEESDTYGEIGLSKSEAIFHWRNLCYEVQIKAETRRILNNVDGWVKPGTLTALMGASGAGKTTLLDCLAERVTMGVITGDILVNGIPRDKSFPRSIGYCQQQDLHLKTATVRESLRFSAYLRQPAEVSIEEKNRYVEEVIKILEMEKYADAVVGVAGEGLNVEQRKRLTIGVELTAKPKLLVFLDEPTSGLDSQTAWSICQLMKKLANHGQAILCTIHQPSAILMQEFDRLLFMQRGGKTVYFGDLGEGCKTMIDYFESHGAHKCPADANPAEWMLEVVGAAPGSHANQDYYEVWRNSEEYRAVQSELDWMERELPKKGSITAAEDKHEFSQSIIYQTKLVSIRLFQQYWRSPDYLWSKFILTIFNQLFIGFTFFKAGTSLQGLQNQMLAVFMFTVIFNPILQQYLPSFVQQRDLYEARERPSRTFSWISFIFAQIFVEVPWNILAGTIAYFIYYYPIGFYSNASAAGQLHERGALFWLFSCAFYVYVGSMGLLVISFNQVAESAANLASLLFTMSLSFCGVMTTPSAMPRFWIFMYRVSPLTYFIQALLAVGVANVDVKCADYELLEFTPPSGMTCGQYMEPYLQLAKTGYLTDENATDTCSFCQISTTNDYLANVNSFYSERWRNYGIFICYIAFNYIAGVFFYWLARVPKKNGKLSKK

B1: Hom3-F[1,2] (other, UniProt P10869 1-527, looked up, not shown: small tags and cut ends)
chain: MPMDFQPTSSHSNWVVQKFGGTSVGKFPVQIVDDIVKHYSKPDGPNNNVAVVCSARSSYTKAEGTTSRLLKCCDLASQESEFQDIIEVIRQDHIDNADRFILNPALQAKLVDDTNKELELVKKYLNASKVLGEVSSRTVDLVMSCGEKLSCLFMTALCNDRGCKAKYVDLSHIVPSDFSASALDNSFYTFLVQALKEKLAPFVSAKERIVPVFTGFFGLVPTGLLNGVGRGYTDLCAALIAVAVNADELQVWKEVDGIFTADPRKVPEARLLDSVTPEEASELTYYGSEVIHPFTMEQVIRAKIPIRIKNVQNPLGNGTIIYPDNVAKKGESTPPHPPENLSSSFYEKRKRGATAITTKNDIFVINIHSNKKTLSHGFLAQIFTILDKYKLVVDLISTSEVHVSMALPIPDADSLKSLRQAEEKLRILGSVDITKKLSIVSLVGKHMKQYIGIAGTMFTTLAEEGINIEMISQGANEINISCVINESDSIKALQCIHAKLLSERTNTSNQFEHAIDERLEQLKRLGIVRPLNCIVAVSQNMGIGKNGDLPWPPLRNEFKYFQRMTTTSSVEGKQNLVIMGRKTWFSIPEKNRPLKDRINIVLSRELKEPPRGAHFLAKSLDDALRLIEQPEL
On to B1, for which, in assay [1], the “fitness in 50 µM FK506 against the benign environment (PPiSeq, MTX(+))” value is roughly 10 fold.

B2: Tpo1-F[1,2] (other, UniProt Q07824 1-586, looked up, not shown: small tags and cut ends)
chain: MSDHSPISNKENHLLPSDSSRSSSSDMHSTGTTGTTGVEPVDFTGEGAKYTTATEGNGGADLAIQRTTTMNSAAESEVNITRRLTKILTGSVNEPDRVEVDYTNCAPMGGDRPYPPSLPSRDLYEVTFDGPNDPLHPFNWPMKKKVLLCLVLCLDSIAIAMCSSIFASAVPQICEIYHVIEVVAILGITLFVLGFAASPVIYAPLSELYGRKGVLVLSAFGFALFQFAVATAENLQTIFICRFFGGFIGAAPMAVVPAAFADMFDTNVRGKAIALFSLGVFVGPILSPVMGSYIAQRTTWRWLEYVVGCFASAVFVAIVLFFEETHHPTILVNKAKQMRKQSNNWGIHAAHEDVELSIKDIVQKTVTRPIIMLFVEPLLLFVTIYNSFVYGILYLLLEAYPLVFVEGYGFTENGELPYIALIIGMMVCAAFIWYMDNDYLKRCRAKGKLVPEARLYAMVIAGTVFPIGILWFCWTGYYPHKIHWMVPTVGGAFIGFGLMGIFLPCLNYIIESYLLLAASAVAANTFMRSAFGACFPLFAGYMFRGMGIGWAGLLLGLFAAAMIPVPLLFLKYGESIRKKSKYAYAAVRPLNCIVAVSQNMGIGKNGDLPWPPLRNEFKYFQRMTTTSSVEGKQNLVIMGRKTWFSIPEKNRPLKDRINIVLSRELKEPPRGAHFLAKSLDDALRLIEQPEL
For B2, the “fitness (PPiSeq, MTX(+), benign environment)” value in assay [2] came out at 0.08.

B3: Shr3-F[1,2] (other, UniProt Q02774 1-210, looked up, not shown: small tags and cut ends)
chain: MFSYSDFCSIGTAMILSATTFLMGVFFSNMPYDYHLLFNPNSTQEHFDLALRHYQILHETPLPVIVTLCVVAGIGLVGGTIKVFKPNPELQMFEYCSLGLYVLAICVFLTNVKTGIDCSVSHNWGEVTENQGLAVIASSNIILLVMFAGVIILQIGLWYSNWDLQKRLKEFYAQEEREAANAGKKTEKVDNAKKNDNKSKGAQKRKNAKKVRPLNCIVAVSQNMGIGKNGDLPWPPLRNEFKYFQRMTTTSSVEGKQNLVIMGRKTWFSIPEKNRPLKDRINIVLSRELKEPPRGAHFLAKSLDDALRLIEQPEL
B3: in assay [3], the “fitness (PPiSeq, MTX(+), benign environment)” value turned out to be 0.1.

B4: Ftr1-F[1,2] (other, UniProt P40088 1-404, looked up, not shown: small tags and cut ends)
chain: MPNKVFNVAVFFVVFRECLEAVIVISVLLSFLKQAIGEHDRALYRKLRIQVWVGVLLGFIICLAIGAGFIGAYYSLQKDIFGSAEDLWEGIFCMIATIMISMMGIPMLRMNKMQSKWRVKIARSLVEIPHRKRDYFKIGFLSRRYAMFLLPFITVLREGLEAVVFVAGAGITTQGSHASAYPLPVVVGLICGGLVGYLLYYGASKSSLQIFLILSTSILYLISAGLFSRGAWYFENYRFNLASGGDASEGGDGNGSYNIRKAVYHVNCCNPELDNGWDIFNALLGWQNTGYLSSMLCYNIYWLVLIIVLSLMIFEERRGHLPFTKNLQLKHLNPGYWIKNKKKQELTEEQKRQLFAKMENINFNEDGEINVQENYELPEQTTSHSSSQNVATDKEVLHVKADSLVRPLNCIVAVSQNMGIGKNGDLPWPPLRNEFKYFQRMTTTSSVEGKQNLVIMGRKTWFSIPEKNRPLKDRINIVLSRELKEPPRGAHFLAKSLDDALRLIEQPEL
As to B4, in assay [4], the “fitness (PPiSeq, MTX(+), benign environment, relative to control strain lacking mDHFR fragments)” value turned out to be 0.1.

B5: Ftr1 split Renilla luciferase (Rluc) PCA fusion (other, S. cerevisiae, UniProt P40088 1-404, looked up)
chain: MPNKVFNVAVFFVVFRECLEAVIVISVLLSFLKQAIGEHDRALYRKLRIQVWVGVLLGFIICLAIGAGFIGAYYSLQKDIFGSAEDLWEGIFCMIATIMISMMGIPMLRMNKMQSKWRVKIARSLVEIPHRKRDYFKIGFLSRRYAMFLLPFITVLREGLEAVVFVAGAGITTQGSHASAYPLPVVVGLICGGLVGYLLYYGASKSSLQIFLILSTSILYLISAGLFSRGAWYFENYRFNLASGGDASEGGDGNGSYNIRKAVYHVNCCNPELDNGWDIFNALLGWQNTGYLSSMLCYNIYWLVLIIVLSLMIFEERRGHLPFTKNLQLKHLNPGYWIKNKKKQELTEEQKRQLFAKMENINFNEDGEINVQENYELPEQTTSHSSSQNVATDKEVLHVKADSL
notes: whole, on cells; DHFR fragment of the Ftr1-F[1,2] strain replaced by an Rluc PCA fragment by homologous recombination; also called Ftr1 (Rluc PCA strain); not shown: linker of the pAG25/pAG32-linker-Rluc cassettes; Renilla luciferase PCA fragment; DHFR F[1,2] strains are said to receive Rluc F[2], but the next sentences call baits Rl
Take B5: in assay [5], the binding result is on record as “binds”.

B6: Fmp45-F[1,2] (other, UniProt Q07651 1-309, looked up, not shown: small tags and cut ends)
chain: MIFKRFVNLLVFLFLLGAGLLTFFLILSGGRESGTLKNFYWLQADTNGFNSAPSTTRWYNYNWCGYEDGQLANCSSRAPAKPFSPRDNFGNSVNLPSSFRNNRDTYYYLSRVGWAMLLISLFFIVLALVPGFLATFLPFKAVPVLYCVLSWLAFFFIILAACLYTGCYVKARKTFRNSGRSARLGPKNFAFIWTSVFLMLVNAIWSTIFSATHKAHSTYSDHDMYAQYESPSVDTGAQMEKSTYNSGATDGAGPITAAPVVGQPQPTTTTTPAGNGKFFQKLKTRKQVPSAELEPAGDGGLAGPVTVRDVRPLNCIVAVSQNMGIGKNGDLPWPPLRNEFKYFQRMTTTSSVEGKQNLVIMGRKTWFSIPEKNRPLKDRINIVLSRELKEPPRGAHFLAKSLDDALRLIEQPEL
With B6, the “fitness (PPiSeq, MTX(+), benign environment)” value in assay [4] is 0.06.

The values are drawn from patent US20180298377A1 (RESEARCH FOUNDATION FOR THE STATE UNIVERSITY OF NEW YORK, published 2018).
